This note sets out measurements from patent US11981719 (ALTEOGEN, dated 2024).

Experiment [1] addresses T1, recombinant hGH receptor Fc chimera (human, UniProt P10912 19-264).
T1 construct: also called hGH receptor chimera; not shown: Fc part of the chimera
T1 sequence (looked up): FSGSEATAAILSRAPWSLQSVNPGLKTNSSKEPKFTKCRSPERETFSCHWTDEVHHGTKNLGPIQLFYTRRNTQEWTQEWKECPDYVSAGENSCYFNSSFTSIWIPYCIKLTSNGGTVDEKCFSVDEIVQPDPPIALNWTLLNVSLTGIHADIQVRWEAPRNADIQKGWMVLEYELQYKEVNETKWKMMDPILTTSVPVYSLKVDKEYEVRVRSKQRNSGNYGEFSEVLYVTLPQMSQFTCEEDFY
The experiment can be described thus: ELISA on plate-coated recombinant hGH receptor Fc chimera, detected with biotinylated anti-hGH polyclonal antibody. As to the method:
After additional washing step, 3,3',5,5'-tetramethylbenzidine (TMB) was added to each well to allow TMB reaction. Absorbance signals from the reaction were recorded at 450 nm to 650 nm.
A general note: An ELISA detects its analyte on a solid surface through an enzyme-linked reagent.

Experiment [2] deals with T2, hGH receptor on hGHR/Luc/HEK293F cells (human, UniProt P10912 19-638).
T2 sequence (looked up): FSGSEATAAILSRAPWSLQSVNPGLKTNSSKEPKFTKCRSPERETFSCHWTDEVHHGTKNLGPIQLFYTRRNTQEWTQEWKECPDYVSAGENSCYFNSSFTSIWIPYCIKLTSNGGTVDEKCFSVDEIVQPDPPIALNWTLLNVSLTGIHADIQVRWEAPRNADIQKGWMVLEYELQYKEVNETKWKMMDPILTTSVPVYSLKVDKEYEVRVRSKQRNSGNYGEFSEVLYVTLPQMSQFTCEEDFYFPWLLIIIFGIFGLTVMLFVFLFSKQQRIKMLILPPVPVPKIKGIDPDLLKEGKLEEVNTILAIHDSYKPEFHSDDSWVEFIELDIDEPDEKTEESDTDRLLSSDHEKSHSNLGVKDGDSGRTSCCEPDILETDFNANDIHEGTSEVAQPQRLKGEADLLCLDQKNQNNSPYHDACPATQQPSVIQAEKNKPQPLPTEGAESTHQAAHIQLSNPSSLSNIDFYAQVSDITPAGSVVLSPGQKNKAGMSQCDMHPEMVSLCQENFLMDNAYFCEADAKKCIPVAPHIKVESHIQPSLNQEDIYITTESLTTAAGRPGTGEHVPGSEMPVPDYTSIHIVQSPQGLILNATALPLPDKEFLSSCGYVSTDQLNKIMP
The experiment can be described thus: cell-based or functional assay.

Residue numbers refer to the chain shown, from its start.

With Pegvisomant (ligand), in experiment [1], the Relative binding potency (relative to Pegvisomant) was determined as 1. The same molecule registered a Relative inhibitory potency (relative to Pegvisomant) in experiment [2] of 1.

B1: hGH-A3 (ligand)
chain: FPTIPLSRLFDNAMLRAHRLNQLAFDTYQEFEEAYIPKEQKYSFLQNPQTSLCFSESIPTPSNREETQQKSNLELLRISLLLIQSWLEPVQFLRSVFANSLVYGASDSNVYDLLKDLEEKIQTLMGRLEDGSPRTGQIFKQTYSKFDTNSHNDDALLKNYGLLYCFRKDMDKVSTFLRIVQCRSVEGSCGFEDPQGDAANKTDTSHHDQDHPTFNKITPNLAEFAFSLYRQLAHQSNSTNIFFSPVSIATAFAMLSLGTKADTHDEILEGLNFNLTEIPEAQIHEGFQELLHTLNQPDSQLQLTTGNGLFLSEGLKLVDKFLEDVKKLYHSEAFTVNFGDTEEAKKQINDYVEKGTQGKIVDLVKELDRDTVFALVNYIFFKGKWERPFEVKDTEEEDFHVDQVTTVKVPMMKRLGMFNIQHCKKLSSWVLLMKYLGNATAIFFLPDEGKLQHLENELTHDIITKFLENEDRRSASLHLPKLSITGTYDLKSVLGQLGITKVFSNGADLSGVTEEAPLKLSKAVHKAVLTIDEKGTEAAGAMFLEAINMSIPPEVKFNKPFVFLMIDQNTKSPLFMGKVVNPTQK
notes: also called hGHRA-NexP
As to B1, in experiment [1], the Relative binding potency is 0.925 relative to Pegvisomant. Besides, the Relative inhibitory potency in experiment [2] is 0.957 relative to Pegvisomant.

B2: hGH-A4 (ligand)
chain: B1 chain with H18D, I179T
notes: also called hGHRA-NexP
As to B2, in experiment [1], the Relative binding potency was 2.31 relative to Pegvisomant. In addition, the Relative inhibitory potency in experiment [2] was 1.22 relative to Pegvisomant.

B3: hGH-A7 (ligand)
chain: B1 chain with F54P, R64K, R167N, D171S, F176Y
notes: also called hGHRA-NexP
As to B3, in experiment [1], the Relative binding potency is 4.73 relative to Pegvisomant. In experiment [2], the Relative inhibitory potency is 1.84 relative to Pegvisomant.

B4: hGH-A9 (ligand)
chain: B1 chain with H18D, Q46K, I179T
notes: also called hGHRA-NexP
As for B4, the Relative binding potency in experiment [1] is 4.58 relative to Pegvisomant. Besides, the Relative inhibitory potency in experiment [2] is 1.89 relative to Pegvisomant.

B5: hGH-A8 (ligand)
chain: B1 chain with H18D, R167N, K168A, D171S, K172R, I179T
notes: also called hGHRA-NexP
Turning to B5, the Relative binding potency in experiment [1] was 4.64 relative to Pegvisomant. Moreover, in experiment [2], the Relative inhibitory potency is 1.42 relative to Pegvisomant.

B6: hGH-A6 (ligand)
chain: B1 chain with F54P, R64K, F176Y
notes: also called hGHRA-NexP
As for B6, the Relative binding potency in experiment [1] is 3.37 relative to Pegvisomant. Besides, the Relative inhibitory potency in experiment [2] is 1.42 relative to Pegvisomant.

B7: hGH-A10 (ligand)
chain: EDPQGDAANKTDTSHHDQDHPTFNKITPNLAEFAFSLYRQLAHQSNSTNIFFSPVSIATAFAMLSLGTKADTHDEILEGLNFNLTEIPEAQIHEGFQELLHTLNQPDSQLQLTTGNGLFLSEGLKLVDKFLEDVKKLYHSEAFTVNFGDTEEAKKQINDYVEKGTQGKIVDLVKELDRDTVFALVNYIFFKGKWERPFEVKDTEEEDFHVDQVTTVKVPMMKRLGMFNIQHCKKLSSWVLLMKYLGNATAIFFLPDEGKLQHLENELTHDIITKFLENEDRRSASLHLPKLSITGTYDLKSVLGQLGITKVFSNGADLSGVTEEAPLKLSKAVHKAVLTIDEKGTEAAGAMFLEAINMSIPPEVKFNKPFVFLMIDQNTKSPLFMGKVVNPTQKFPTIPLSRLFDNAMLRAHRLNQLAFDTYQEFEEAYIPKEQKYSFLQNPQTSLCPSESIPTPSNKEETQQKSNLELLRISLLLIQSWLEPVQFLRSVFANSLVYGASDSNVYDLLKDLEEKIQTLMGRLEDGSPRTGQIFKQTYSKFDTNSHNDDALLKNYGLLYCFNKDMSKVSTYLRIVQCRSVEGSCGF
notes: also called hGHRA-NexP
Turning to B7, the Relative binding potency in experiment [1] was 6.08 relative to Pegvisomant. Further, in experiment [2], the Relative inhibitory potency is 17.7 relative to Pegvisomant.

B8: hGH-A11 (ligand)
chain: B7 chain with H412D, Q440K, P448F, K458R, N561R, S565D, Y570F, I573T
notes: also called hGHRA-NexP
Take B8: the Relative binding potency in experiment [1] was 9.95 relative to Pegvisomant. Also, the Relative inhibitory potency in experiment [2] is 17.3 relative to Pegvisomant.
